Reference: patent publication US20230242616A1 (LUDWIG MAXIMILIANS UNIVERSIT T M NCHEN, published 2023)
Where no end group is shown, it is not given here.

B1: ECL1 fragment 100-110 (peptide)
peptide: ANWYFGNFLCK-NH2
B2: ECL1 fragment 101-110 (peptide)
peptide: NWYFGNFLCK-NH2
B3: ECL1(102-110) (peptide)
peptide: WYFGNFLCK-NH2
B4: ECL2(187-195) (peptide)
peptide: DRFYPNDLW-NH2
B5: ECL2 fragment 185-195 (peptide)
peptide: ICDRFYPNDLW-NH2
B6: msR4M-LD3 ([ECL1(102-110)]-D-D-D-[ECL2(187-195)]) (designed binder)
peptide: WYFGNFLCKDDDDRFYPNDLW-NH2
modifications: not fully specified; printed as WYFGNFLCK-DDD-DRFYPNDLW
notes: also called ngm-LD3; msR4M-D3
B7: msR4M-LR3 ([ECL1(102-110)]-R-R-R-[ECL2(187-195)]) (designed binder)
peptide: WYFGNFLCKRRRDRFYPNDLW-NH2
modifications: not fully specified; printed as WYFGNFLCK-RRR-DRFYPNDLW
notes: also called ngm-LR3; msR4M-R3
B8: msR4M-LK3 ([ECL1(102-110)]-K-K-K-[ECL2(187-195)]) (designed binder)
peptide: WYFGNFLCKKKKDRFYPNDLW-NH2
modifications: not fully specified; printed as WYFGNFLCK-KKK-DRFYPNDLW
notes: also called ngm-LK3; msR4M-K3

How the values were obtained:
[1] = biological target: T1, human macrophage migration-inhibitory factor (MIF) (human, UniProt P14174 2-115, limits assumed, Alexa-Fluor 488 or Monolith NT-647 (MST-Red) label where so named); assay: fluorescence spectroscopic binding assay
T1 construct: Biologically active recombinant MIF prepared as reported previously; also called Alexa-MIF; Alexa-488-MIF

[2] = biological target: T1, human macrophage migration-inhibitory …; assay: cell-based or functional assay
[3] = biological target: T1, human macrophage migration-inhibitory …; assay: fluorescence spectroscopic titration, apparent Kd; Fluos-ngm titrated with MIF
Procedure: (§1) Peptides were dissolved and analyzed by MALDI-TOF-MS; ^{[a]}Peptides were synthesized with free amino-N-terminal and amidated C-terminal; ^{[b]}monoisotopic molar mass with an additional hydrogen [M + H]⁺; ^{[c]} App. Kds, are means (±SD) from three independent titration experiments which were performed in aqueous […], pH 7.4, containing 1% HFIP.
(§2) Fluorescence spectroscopy. Fluorescence spectroscopic titrations were performed as described^{28, 32}. Fluorescence spectra were recorded using a JASCO FP-6500 fluorescence spectrophotometer. […] Apparent KD values (app. KD) were calculated assuming a 1/1 binding model³².

[4] = biological target: T1, human macrophage migration-inhibitory …; assay: fluorescence spectroscopic titration, apparent Kd; Alexa-488-MIF titrated with ngm
Procedure: as §1, §2

[5] = biological target: T1, human macrophage migration-inhibitory …; assay: fluorescence spectroscopic titration
[6] = biological target: T1, human macrophage migration-inhibitory …; assay: fluorescence spectroscopic titration of Fluos-ngm-LD3 with increasing MIF [panel B]
Procedure: as §2

[7] = biological target: T1, human macrophage migration-inhibitory …; assay: fluorescence spectroscopic titration; row labelled msR4M-L5 but with the K-K-K linker
Procedure: as §1, §2

T1 sequence (P14174 2-115 limits assumed): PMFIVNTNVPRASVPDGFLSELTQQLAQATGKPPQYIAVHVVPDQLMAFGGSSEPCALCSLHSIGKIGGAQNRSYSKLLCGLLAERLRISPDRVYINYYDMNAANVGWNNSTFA

Binder | Kd [1] | inhibitory capacity in the Dil-LDL foam cell assay [2] | Kd [3] | Kd [4] | other results
B1 | 215 nM | ~80 % of full-length msR4M-L1 | – | – | –
B2 | 51 nM | ~80 % of full-length msR4M-L1 | – | – | –
B3 | 80 nM | ~80 % of full-length msR4M-L1 | – | – | –
B4 | 286 nM | ~80 % of full-length msR4M-L1 | – | – | –
B5 | 324 nM | ~80 % of full-length msR4M-L1 | – | – | –
B6 | – | – | 36 nM | 246 nM | Kd [5]: 33 nM; IC50 of inhibition of MIF-mediated monocyte migration (3D, single cell tracking) [2]: 18.4 nM; IC50 of inhibition of MIF-triggered Dil-oxLDL uptake (foam cell assay) [2]: 1.4 nM; EC50 (read off the curve) [6]: ~30 nM
B7 | – | – | 16.8 nM | 110 nM | Kd [5]: 22 nM
B8 | – | – | 36.4 nM | 44.8 nM | Kd [7]: 30 to 40 nM
